{
  "source": "patent US11028127B2",
  "about": "“Peptides capable of reactivating p53 mutants” (Yeda Research and Development Co. Ltd., priority 2013, dated 2021)",
  "key": {"[1]": {"system": "WI-38 fibroblasts overexpressing R175H p53 (WI38-175)", "assay": "Crystal violet viability assay", "format": "cell-based", "details": "48 hours; much more prominent than in mNoxa-i control cells", "protocol": "FIGS. 13A and 13B are bar graphs illustrating the effect of various tested peptides on the viability of cells expressing Mut-p53, as determine by crystal violet assay. WI-38 fibroblasts expressing endogenous WT p53 were infected with retroviruses expressing either mouse Noxa shRNA (WI38-m-Noxa-i) as a nonspecific control or the R175H p53 mutant for stable overexpression of mutant p53 (WI38-175). The cells (WI38-m-Noxa-i or WI38-175) were seeded at 3000 cells per well in 96-well plates. Tested peptides were added to the cells. Different concentrations of etoposide (cytotoxic drug, 4′-Demethyl-epipodophyllotoxin 9-[4,6-O—(R)-ethylidene-beta-D-glucopyranoside], 4′-(dihydrogen phosphate) were used as positive control for cell death and as a standard reference curve to assess the effect of tested peptides. 48 hours after treatment, cells were washed with PBS to exclude dead cells and debris, and cells that remained attached to the plate were stained with crystal-violet for 30 minutes. Crystal violet was removed and cells were washed 4 times with PBS to remove residual crystal violet. Then, the stained cells were dissolved in 10% acetic acid and plates were taken for optical density measurement at 595 nM (optimal for crystal violet). The bar graphs of FIGS. 13A and 13B show the optical density reads at 595 nm, which reflect the number of cells in the plate after treatment, normalized to the non-treated (NT) samples.\nCells were cultured in 96 wells plates with 2500-4000 cells/well in 0.1 ml and incubated overnight at 37° C. in order to adhere to the plate. Serial dilutions of different peptides (0.5 μg/ml) were added in 0.1 ml aliquots and the plates incubated for additional 48 h at 37° C. Then medium was removed and cell lysis was determined by staining the cells with crystal violet (0.5%) in methanol/water (1:4, v/v), 50 μl each well, for 10 min, followed by 3 washes with PBS. Afterwards, 10% acetic acid (50 μl) was added to each well and shaken for 10 min. Then, automatic plate reading was performed at 595 nm.\nAn important indication for the reactivating peptides activity is their effect in-vivo on cancer cells that express Mut-p53. In particular, reactivating peptides that can cause specifically Mut-p53-dependent death of cancer cells, with minimal toxic effects on normal cells are desired. A crystal-violet based viability assay, in which crystal-violet is employed to stain cells that adhere to the plate and therefore the amount of dye is proportional to cell number was used to determine the effect of the various test peptides on Mut-p53-dependent death.\nCells were plated in 96-well plates, at calibrated density that allows them to grow for 48 hours without reaching confluence. Peptides are added 6 hours later. Different concentrations of etoposide (cytotoxic drug) were used as positive control for cell death and as a standard reference curve to assess the effect of tested peptides. 48 hours after treatment, cells were washed with PBS to exclude dead cells and debris, and cells that remained attached to the plate were stained with crystal-violet for 30 minutes. Crystal-violet was removed and cells were washed with PBS 4 times to eliminate remains of crystal-violet. Then, the stained cells were dissolved in 10% acetic acid and plates were taken for optical density measurement at 595 nM (specific to crystal-violet).\nFIGS. 13A and 13B illustrate a representative experiment of screening performed on 128 synthesized peptides. In this experiment, WI-38 fibroblasts were used. These cells express endogenous WT p53 and were further infected with a virus expressing either mouse Noxa shRNA, as a nonspecific control or the R175H p53 mutant for stable overexpression of mutant p53. Both of these sub-lines (mNoxa or R175H p53) were seeded at 3000 cells per well and treated as described above. […]"}, "Mut-p53 (R175H p53) [2]": {"target": "T1, Mut-p53 (R175H p53) (Homo sapiens, UniProt P04637, R175H)", "T1 construct": "a hot spot full length mutant p53 Mut-p53 R175H (R175H p53); expressed in transfected cells; host or cells: H1299 (p53-null) cells stably overexpressing R175H p53; cell extract", "assay": "p53/DNA binding ELISA kit (R&D), binding to p53-RE DNA", "format": "biochemical", "details": "H1299-R175H p53 cell extracts, vs background (NT)", "text": "A commercial p53/DNA binding kit (R&D) was used, according to manufacturer instructions. Briefly, 96 well plates were coated with anti-p53 antibody overnight. Cell extracts containing p53 were reacted with an oligonucleotide that contains a p53 consensus binding site, labeled with biotin, in the presence or absence (NT) of test peptides. WT p53 is expected to bind this DNA binding site as well as to the antibody coating the test wells of the plate. Excess p53 and oligos are washed away and streptavidin-HRP is used to quantify the amount of oligos in the well, which is proportional to the DNA bound by p53. TMB assay was performed to determine HRP levels (450 nm). The results are presented as relative absorbance (at 450 nm) (Y-Axis) of each tested sample. MCF7 and the H1299-Mut-p53 (ts) A135V cells serve as positive controls for WT p53.\nFor these experiments, a commercial p53/DNA binding kit of “R&D” (Cat-DYC1355-5 Lot-1273366FA) was used, in accordance with manufacturer guide lines. Briefly, 96 well plates are coated with anti-p53 antibody overnight. Cell extracts containing p53 are reacted with an oligonucleotide that contains a p53 consensus binding site (provided in the kit), labeled with biotin, in the presence or absenc.\ne (NT) of test peptides. WT p53 is expected to bind this DNA binding site as well as to the antibody coating the test wells of the plate. Excess p53 and oligos were washed away and streptavidin-HRP was used to quantify the amount of oligos in the well, which is proportional to the DNA bound by p53. TMB assay was performed to determine HRP (ES001-1L-K) levels (450 nm).\nTo measure the effect of the tested peptides on DNA binding of Mut-p53, a commercial ELISA kit, (R&D Systems DYC1355-5, Lot-1273366FA), was used as a high-throughput assay to quantify p53 activation. This kit uses a 96-well plate format. The kit was used according to manufacturer's instructions. Wells were coated with anti-p53 antibody overnight. Cell extracts containing p53 were reacted with a biotin labeled oligonucleotide containing a p53 consensus binding site (included in the kit). WT p53 is expected to bind this oligo as well as the antibody coating the wells. Excess p53 and oligo were washed away in wash buffer (0.05% Tween 20 in PBS, pH 7.2-7.4; R&D Systems, Catalog #WA126). Then, streptavidin-HRP (R&D Systems, Part 890803, provided in the kit) was added for 15-45 min to quantify the amount of oligo in the well, which is proportional to the DNA bound by p53. If the addition of a peptide to Mut-p53 extracts increases ELISA reading compared to background, this peptide is considered as functionally effective and may be selected for further analysis. […] As with the conformational screening, MCF7 and the H1299-Mut-p53 (ts) A135V cells served as positive controls for WT p53. Extracts were added to the wells coated with αp53-Ab, and after several washing steps, streptavidin-HRP was added for 1 hour, and then plates were washed again and TMB (substrate to HRP) assay was performed."}, "Mut-p53 (R175H p53) [3]": {"target": "T1, Mut-p53 (R175H p53)", "assay": "Sandwich ELISA for p53 conformation (PAb1620/PAb240 reactivity)", "format": "biochemical", "details": "extract of H1299 cells overexpressing R175H p53; peptide 50 ng/ml, 2 hours", "protocol": "To measure the conformational effect of the peptides on Mut-p53, a micro-titer plate was coated with either PAb240, PAb1620 or pAb421 (as a positive control and standard for total p53 protein, since the antibody used recognizes both WT and mutant conformations), overnight incubated, washed, blocked, and cell extracts (with or without peptides) were added for an additional 2 hours. After removal of extracts, plates were washed and incubated with the αp53-HRP conjugated Ab for the detection of p53 levels. A TMB (substrate of HRP) assay was performed and optical density was determined at 450 nm. WT p53 served as a positive control for reactivity with PAb1620, and Mut-p53 served as a negative control. The results are presented as the ratio of absorbance between the PAb1620 or PAb240 samples and the control […] sample. MCF7 and H1299-Mut-p53 (ts) A135V (TS) cells were used as positive controls for the WT p53 conformation (1620/240 ratio equals or exceeds 5:1).\n96-well plates were coated using 3 different antibodies (1 type of antibody (Ab) in each well): PAb421 recognizes both conformations of p53 and binds to a C-terminus epitope; PAb240 recognizes mutant conformation of p53, binds to epitope within the core domain (amino acids 212-217) (Stephen, C. W. and D. P. Lane, Mutant conformation of p53. Precise epitope mapping using a filamentous phage epitope library. J. Mol. Biol., 1992. 225(3): p. 577-83) which is accessible to the Ab when the protein is partially denatured (for example, when the DBD is mutated); and PAb1620, which recognizes WT conformation of p53, binds to epitope with in the core domain (aa 156, 206-210), formed when folding is in WT conformation (Wang, P. L., F. Salt, and G. Winter, The ‘wild type’ conformation of p53: epitope mapping using hybrid proteins. Oncogene, 2001. 20(18): p. 2318-24).\nWells were incubated overnight (ON) with 100 μl Ab (5 μg/ml) in room temp (RT). The liquid was discarded, and the wells were washed 3 times with Phosphate buffered saline (PBS), 200 μl per each wash. Next, blocking with 200 μl of 5% bovine serum albumin (BSA) diluted in PBS in each well for 1.5 hours at room temperature (RT) was performed. Blocking buffer was discarded, followed by 3 washes in PBS as described above. Samples of mutant and WT p53 proteins (100 μl, 10 μg/ml), together with control peptides pCAP-710 (LPNPPER, SEQ ID NO:328) and pCAP-1220 ([…], SEQ ID NO:368) (5 μg/ml, Sigma Aldrich, or with test peptides 1-153 (5 μg/ml), were incubated for 1.5 hours together, and then added to the wells. Samples were rotated and incubated for 1 hour at RT. Samples were discarded, following 4 washes as described above, using Trisphosphate buffered saline (TPBS). Next, horseradish peroxidase (HRP) conjugated streptavidin p53 antibody (10 μg/ml HAF1355 (R&D)) was added to the wells and incubated at RT for 1 hour. After the plate was washed 3 times in TPBS, TMB substrate solution (50 μl each well, Thermo, (Cat. No. ES001-1L-K)) was added and incubated at 37° c. for 20 min. The reaction was stopped with 2M sulfuric acid (50 μl). The absorbance was measured at 450 nm with a spectrophotometer. Protein concentration was determined by dividing the absorbencies of each sample to the absorbance of Ab 421 samples.\nThe first screening strategy was based on ELISA. A version of sandwich ELISA was used to examine the effect of the lead test peptides on p53 conformation. To measure the conformational effect of the peptides on Mut-p53, a micro-titer plate was coated with PAb240, PAb1620 or pAb421 (as a positive control), and then the reactivity of p53 to these antibodies was examined. WT p53 served as a positive control for reactivity with PAb1620, and Mut-p53 served as a negative control. To examine the effect of a tested peptide it was added to a solution containing Mut-p53 and change in reactivity to either Ab was tested. […] Several ELISA experiments using different cell extracts were performed. […]"}},
  "data": [
    {"sequence": "ASWQALALYAAGW [pCAP-46]", "values": [
      {"measurement": "reduction in cell numbers, R175H p53 expressing WI-38 cells", "setting": "[1]", "value": "significant reduction in cell numbers"}
    ]},
    {"sequence": "ATQHHYIK [pCAP-93]", "values": [
      {"measurement": "binding of H1299-R175H p53 extracts to p53-RE DNA", "setting": "Mut-p53 (R175H p53) [2]", "value": "elevate the binding of H1299-R175H p53 extracts to p53-RE DNA"}
    ]},
    {"sequence": "HSSHHHPVHSWN [pCAP-83]", "values": [
      {"measurement": "binding of H1299-R175H p53 extracts to p53-RE DNA", "setting": "Mut-p53 (R175H p53) [2]", "value": "elevate the binding of H1299-R175H p53 extracts to p53-RE DNA"}
    ]},
    {"sequence": "SFILFIRRGRLG [pCAP-60]", "values": [
      {"measurement": "reduction in cell numbers, R175H p53 expressing WI-38 cells", "setting": "[1]", "value": "significant reduction in cell numbers"},
      {"measurement": "reactivity of R175H Mut-p53 towards PAb1620 and PAb240 (conformational change)", "setting": "Mut-p53 (R175H p53) [3]", "value": "increased reactivity of R175H Mut-p53 towards PAb1620 and decreased reactivity towards PAb240"}
    ]},
    {"sequence": "TLYLPHWHRH [pCAP-47]", "values": [
      {"measurement": "reduction in cell numbers, R175H p53 expressing WI-38 cells", "setting": "[1]", "value": "significant reduction in cell numbers"},
      {"measurement": "reactivity of R175H Mut-p53 towards PAb1620 and PAb240 (conformational change)", "setting": "Mut-p53 (R175H p53) [3]", "value": "increased reactivity of R175H Mut-p53 towards PAb1620 and decreased reactivity towards PAb240"}
    ]},
    {"sequence": "WNHHHSTPHPAH [pCAP-97]", "values": [
      {"measurement": "reduction in cell numbers, R175H p53 expressing WI-38 cells", "setting": "[1]", "value": "significant reduction in cell numbers"},
      {"measurement": "binding of H1299-R175H p53 extracts to p53-RE DNA", "setting": "Mut-p53 (R175H p53) [2]", "value": "elevate the binding of H1299-R175H p53 extracts to p53-RE DNA"}
    ]},
    {"sequence": "YPTQGHLR [pCAP-36]", "values": [
      {"measurement": "reduction in cell numbers, R175H p53 expressing WI-38 cells", "setting": "[1]", "value": "significant reduction in cell numbers"},
      {"measurement": "reactivity of R175H Mut-p53 towards PAb1620 and PAb240 (conformational change)", "setting": "Mut-p53 (R175H p53) [3]", "value": "increased reactivity of R175H Mut-p53 towards PAb1620 and decreased reactivity towards PAb240"}
    ]}
  ]
}
